This note sets out measurements from patent US20150246947A1 (BAXALTA, published 2015).

Values joined by “and” are separate entries in the source; they are usually repeats but may differ in a detail not shown here. Equal values may be shown once. Non-standard residues stand in square brackets, D forms with d. Tle = CC(C)(C)[C@H](N)C(=O)O

One may read the IC50 as the concentration that gives 50% inhibition. A higher IC50 goes with weaker potency.

Sequences and labels used below:
B1: JBS3314 (peptide)
peptide: Ac-EYYVSAGWYDYNTDTYYEFT-NH2
B2: JBS3297 (peptide)
peptide: Ac-DNYVSAGWYDYNTDTYYEFY-NH2
B3: JBS3281 (peptide)
peptide: Ac-YVEVSAGWYDYNTDTYSEFW-NH2
B4: JBS3284 (peptide)
peptide: Ac-HIYVTAGWYDYNTDTYHEFE-NH2
B5: JBS2516 (peptide)
peptide: Ac-TAHVSAGWYDYNFDHYREFT-NH2
B6: JBS2582 (peptide)
peptide: Ac-TGHVSAGWYDYNLDHYREFT-NH2
B7: JBS2661 (peptide)
peptide: Ac-TGHVSAGWYDYNFDSYREFT-NH2
B8: JBS2592 (peptide)
peptide: Ac-TGKVSAGWYDYNFDHYREFT-NH2
B9: JBS2546 (peptide)
peptide: Ac-TGHVSAGWYDYNFDDYREFT-NH2
B10: JBS3194 (peptide)
peptide: Ac-TGLVSAGWYDYNNDTYREFT-NH2
B11: JBS3195 (peptide)
peptide: Ac-TGLVSAGWYDYNNDVYREFT-NH2
B12: JBS3186 (peptide)
peptide: Ac-TGLVSAGWYDYNFDTYMEFT-NH2
B13: JBS3198 (peptide)
peptide: Ac-TGLVSAGWYDYNNDHYMEFT-NH2
B14: JBS3189 (peptide)
peptide: Ac-TGLVSAGWYDYNFDVYTEFT-NH2
B15: JBS3190 (peptide)
peptide: Ac-YGLVSAGWYDYNFDTYREFT-NH2
B16: JBS3188 (peptide)
peptide: Ac-TGLVSAGWYDYNFDTYTEFT-NH2
B17: JBS3197 (peptide)
peptide: Ac-TGLVEAGWYDYNFDHYMEFT-NH2
B18: JBS3191 (peptide)
peptide: Ac-YGLVSAGWYDYNFDVYREFT-NH2
B19: JBS3192 (peptide)
peptide: Ac-TGLVEAGWYDYNFDTYREFT-NH2
B20: JBS3201 (peptide)
peptide: Ac-YGLVEAGWYDYNNDTYMEFT-NH2
B21: JBS3202 (peptide)
peptide: Ac-TGL[Tle]SAGWYDYNFDTYREFT-NH2
SMILES: CC(=O)N[C@H](C(=O)NCC(=O)N[C@@H](CC(C)C)C(=O)N[C@H](C(=O)N[C@@H](CO)C(=O)N[C@@H](C)C(=O)NCC(=O)N[C@@H](Cc1c[nH]c2ccccc12)C(=O)N[C@@H](Cc1ccc(O)cc1)C(=O)N[C@@H](CC(=O)O)C(=O)N[C@@H](Cc1ccc(O)cc1)C(=O)N[C@@H](CC(N)=O)C(=O)N[C@@H](Cc1ccccc1)C(=O)N[C@@H](CC(=O)O)C(=O)N[C@H](C(=O)N[C@@H](Cc1ccc(O)cc1)C(=O)N[C@@H](CCCNC(=N)N)C(=O)N[C@@H](CCC(=O)O)C(=O)N[C@@H](Cc1ccccc1)C(=O)N[C@H](C(N)=O)[C@@H](C)O)[C@@H](C)O)C(C)(C)C)[C@@H](C)O
B22: JBS3203 (peptide)
peptide: Ac-TGL[Tle]SAGWYDYNFDHYMEFT-NH2
B23: JBS3196 (peptide)
peptide: Ac-YGLVSAGWYDYNFDHYMEFT-NH2
B24: JBS3193 (peptide)
peptide: Ac-TGLVEAGWYDYNFDVYREFT-NH2

In one experiment the target is T1, human Protein S (human, UniProt P07225 42-676).
T1 construct: Called 'full length Protein S' / 'human full-length Protein S'; It was coated on plates (ELISA), Eu-labeled (LANCE) or immobilized on a chip (Biacore); also called PS; full length Protein S
T1 sequence: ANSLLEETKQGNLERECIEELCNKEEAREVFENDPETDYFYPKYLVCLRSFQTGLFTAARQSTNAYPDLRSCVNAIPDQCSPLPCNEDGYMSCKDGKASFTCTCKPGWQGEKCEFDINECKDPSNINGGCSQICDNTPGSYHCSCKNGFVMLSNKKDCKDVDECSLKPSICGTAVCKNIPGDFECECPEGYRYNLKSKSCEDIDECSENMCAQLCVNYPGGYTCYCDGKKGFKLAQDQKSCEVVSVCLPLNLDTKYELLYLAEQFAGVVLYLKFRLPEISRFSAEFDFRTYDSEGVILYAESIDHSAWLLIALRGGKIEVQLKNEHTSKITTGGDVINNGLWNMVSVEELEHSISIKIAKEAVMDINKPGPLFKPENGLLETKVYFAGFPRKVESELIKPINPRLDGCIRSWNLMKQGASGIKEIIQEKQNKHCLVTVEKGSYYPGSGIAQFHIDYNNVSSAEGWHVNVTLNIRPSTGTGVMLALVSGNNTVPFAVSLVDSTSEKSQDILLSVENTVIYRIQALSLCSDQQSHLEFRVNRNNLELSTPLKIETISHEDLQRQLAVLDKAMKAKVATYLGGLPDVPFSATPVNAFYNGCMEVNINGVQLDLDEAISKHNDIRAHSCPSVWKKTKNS
Put plainly: Biacore and LANCE IC50. On the technique in general: SPR reads the build-up and loss of mass on a sensor chip optically.
As to B1, the binding result is recorded as “binds”.
Still for that read-out and setting: with B2 the entry was “binds”.
The same measure, in the same setting: with B3 the entry was “binds”; with B4, “binds”.

The target of a further experiment is T1, human Protein S. The experiment is described as follows: cell-based or functional assay.
Turning to B5, the “CAT EC50” value was determined as 21 nM.
The same measure, in the same setting: with B6 the figure was 15 nM.
On the same count and under the same terms, the result for B7 reads 16 nM; that for B8, 68 nM; that for B9, 30 nM.

The target of another experiment is T1, human Protein S. The experiment is described as follows: cell-based or functional assay. The source holds these as a separate data set.
On to B10, for which the “CAT EC50” value came out at 122 nM.
The same measure, in the same setting: with B11 the figure was 139 nM; with B12, 176 nM.
Same read-out and setting: with B13 the figure was 149 nM; with B14, 281 nM.
With B15, the “CAT EC50” value came out at 130 nM.
Take B16: the “CAT EC50” value was 155 nM.
Still for that read-out and setting: with B17 the figure was 146 nM; with B18, 147 nM.
Regarding B19, the “CAT EC50” value turned out to be 117 nM.
Regarding B20, the “CAT EC50” value is 127 nM.
Turning to B21, the “CAT EC50” value stood at 129 nM.
Same read-out and setting: with B22 the figure was 127 nM.
Same read-out and setting: with B23 the figure was 155 nM; with B24, 116 nM.

Another experiment deals with T2, human Protein S (UniProt P07225 42-676).
T2 chain: T1 sequence
The experiment is described as follows: LANCE competition. The essentials: (§1)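 A homogeneous time-resolved FRET (LANCE) competition format paired europium-labelled Protein S and ULight-labelled streptavidin with a biotinylated tracer peptide, against which unlabelled test peptide was titrated three-fold. With final concentrations of 10 nM Protein S, 100 nM streptavidin and 300 nM tracer in 50 µl, or 2 nM Protein S and 60 nM tracer when a Tecan F500 was used, samples stood 1 hour at room temperature. Emission was read at 665 nm with excitation at 340 nm. Non-linear regression of these signals gave the IC50.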
Background: Time-resolved FRET reads energy transfer from a long-lived donor to a nearby acceptor.
In the case of B5, the IC50 turned out to be 9.9 nM.
Take B6: the IC50 is 7.4 nM.
The same measure, in the same setting: the result for B7 reads 7.8 nM; that for B8, 20 nM.
On the same count and under the same terms, with B9 the figure was 31 nM.

The target of another experiment is T2, human Protein S. Put plainly: LANCE competition. This is another data set of the same source. The method, boiled down:
as §1
B1 showed an IC50 of 0.8 nM.
On the same count and under the same terms, with B2 the figure was 1 nM; with B3, 1.7 nM and 2.3 nM; with B4, 1.3 nM.

A further experiment concerns the target T2, human Protein S. The experiment is described as follows: LANCE competition. This is another data set of the same source. The essentials:
as §1
Regarding B10, the IC50 stood at 2 nM. In other words, the single-digit nanomolar range.
Still for that read-out and setting: the result for B11 reads 2.1 nM.
On the same count and under the same terms, with B20 the figure was 1.8 nM; with B23, 2.5 nM.
Still for that read-out and setting: the result for B24 reads 2.7 nM.

A further experiment has as its target T1, human Protein S. The experiment is described as follows: LANCE TR-FRET competition; Eu-labeled Protein S; competitor tracer JBS0684. Here is the method: Peptides also were characterized in a competition, homogenous europium-based TR-FRET assay (LANCE IC50 assay) using JBS0684 as a tracer (i.e., competitor for Protein S binding). The following reagents were mixed together in a Perkin-Elmer ProxiPlate MTP well (indicated concentration is the final concentration): Eu-labeled Protein S (10 nM), Ulight™-labeled Streptavidin (100 nM), tracer (JBS0684 (300 nM)), and peptide (titrated in three-fold dilution steps). The final volume was 50 μl/well. The reaction mix was incubated for 1 hour at room temperature, then the fluorescence emission at 665 nm was recorded on a multi-mode reader (SpectraMax® M5, Molecular Devices) using the following instrument settings: Ex 340 nm, Em 665 nm, delay 50 μsec, integration 100 μsec, reads 100. Binding of tracer peptides to soluble europium-labeled Protein S was detected by Streptavidin labeled with an acceptor fluorophor (ULight™). Inhibition of tracer-binding to Protein S by a non-biotinylated peptide results in a decrease of TR-FRET between the Eu-labeled Protein S and ULight™-labeled Streptavidin. IC50 values were obtained from peptide titration curves at constant tracer concentration using non-linear regression of the fluorescence emission signals at 665 nm.
Several peptides having multiple substitutions in the JBS2572 amino acid sequence were synthesized and evaluated using LANCE IC50 and CAT assays described above. For the assays, pooled normal plasma was supplemented with 3 nM APC and triggered with 6 pM TF, and 15 μM phospholipids (DOPC/POPS 80/20). Stock APC was diluted with TF-PL-MIX to 24 nM (plasma concentration: 3 nM).
As for B10, the IC50 turned out to be 1.8 nM.
In the case of B11, the IC50 worked out at 2 nM.
Molecule B12 displayed an IC50 of 2.6 nM.
Same read-out and setting: with B13 the figure was 2.5 nM; with B14, 5 nM; with B15, 1.6 nM.
On the same count and under the same terms, with B16 the figure was 2.9 nM.
On to B17, for which the IC50 turned out to be 6.1 nM. Compared with the last molecule, the IC50 is about 2.1-fold higher.
On the same count and under the same terms, the result for B18 reads 1.6 nM; that for B19, 2.8 nM.
Still for that read-out and setting: the result for B20 reads 1.9 nM; that for B21, 1.6 nM.
On the same count and under the same terms, with B22 the figure was 1.8 nM.
Consider B23, for which the IC50 turned out to be 2.2 nM.
Same read-out and setting: the result for B24 reads 2.5 nM.

Another experiment has as its target T1, human Protein S. The experiment is described as follows: competition ELISA; Protein S coated; competitor biotinylated tracer JBS0684. Here is the method:
The competition (IC50) ELISA was performed using biotinylated tracer peptide JBS0684 to compete for Protein S-binding with candidate peptides. Peptides that compete with the tracer bind the same region of Protein S as the tracer (and each other). Ninety-six well PolySorp plates (Nunc) were coated with 3 μg/mL Protein S in coating buffer (15 mM Na₂CO₃, 35 mM NaHCO₃, pH 9.6) over night. […] Plates were then washed three times with HNaT. JBS0684 was applied at a concentration corresponding to the EC90 value determined in the binding ELISA. A competitor stock solution of peptide (10 mM) was diluted 1/33.3 in HNaT without HSA, and a serial 1/3 dilution was prepared with HNaT with 3% DMSO. The dilution was further diluted with the biotinylated tracer peptide in a ratio of 1:6 (20 μl competitor dilution and 100 μl tracer peptide). The mixture of competitor and tracer peptide was applied to the Protein S-coated microtiter plate and incubated for 1.5 hours. The plates were washed three times with HNaT. Peptide-Protein S binding was detected by applying HRP-conjugated streptavidin to the microtiter plate, incubating the mixture for one hour, washing the plate three times with HNaT, applying TMB (3,3′5,5′-Tetramethylbenzidin), and detecting the subsequent chromogenic conversion of TMB by HRP. IC50 measurements of peptides are provided herein (see, e.g., Table 3).
Consider B5, for which the IC50 was 3.3 nM.
In turn, B6 gave an IC50 of 2.3 nM.
For the molecule B7, the IC50 is 2.8 nM. The IC50 values of the last two molecules are within 1.5-fold of each other.
In turn, B8 displayed an IC50 of 5.6 nM.
Consider B9, for which the IC50 stood at 6.8 nM.
